{"source": "patent CN111620945A", "key": {"[1]": {"target": "T1, 重组SARS-CoV-2刺突蛋白胞外区 (extra cellular domain of spike protein, S-ECD) (SARS-CoV-2), P0DTC2", "experiment": "indirect ELISA, S-ECD coated at 1 μg/ml, end-point titre", "conditions": "remark: other sources report otherwise"}, "[2]": {"target": "T1, 重组SARS-CoV-2刺突蛋白胞外区 (extra cellular …)", "experiment": "SPR, Biacore 8K, S-ECD immobilised on a CM5 chip, antibody 125-7.8 nM", "conditions": "remark: other sources report otherwise"}}, "data": [{"binder": "FC05 (antibody) chain 1: EVQLLEQSGAEVKKPGASVRVSCKVSGYTLPEVAMHWVRQAPGKGLEWMGGFDPEDGETIYAQKFQGRVTMTEDTSTDTAYMELSSLRSEDTAVYYCATTTPFSSSFWFDPWGQGTLVTVSS chain 2: QSVLTQAPSVSGAPGQKVTISCSGSSSNIGNNYVSWYQQLPGTAPKLLIYDNNKRPSGIPDRFSGSKSGTSATLGITGLQTGDEADYYCGTWDSSLSAVVFGGGTKLTVL", "values": [{"measurement": "抗体滴度 (dilution factor (1:x) from 1 mg/mL)", "setting": "[1]", "result": 320000}, {"measurement": "Kd", "setting": "[2]", "result": 0.1, "unit": "nM"}]}]}
